Our source for the Kd and koff values is PMC9924070 (2021).

Common to all, as to experiment: BLI
For assay [1], the target named is T1, monomeric human Fc-fused SARS-CoV-2_RBD-SD1 (SARS-CoV-2).
Assay [2] has as its target T1, monomeric human Fc-fused …. This is another data set of the same source.
Assay [3] addresses T2, Mouse IgG1 Fc-fused SARS-CoV-2 RBD (SARS-CoV-2, UniProt P0DTC2).
Assay [4] deals with T2, Mouse IgG1 Fc-fused SARS-CoV-2 RBD. This is another data set of the same source.

In general, Kd refers to the equilibrium constant for the complex coming apart. The koff is a measure of how fast the partners let go of each other. A lower koff goes with slow dissociation.

Positions count from the first letter of the chain named.

B1: humVHH (VHH)
VHH: EVQLVESGGGLVQPGGSLRLSCAASGRTFSEYAMGWFRQAPGKEREFVATISWSGGSTYYTDSVKGRFTISRDNAKNTVYLQMNSLRPEDTAVYYCAAAGLGTVVSEWDYDYDYWGQGTLVTVSS
Take B1: the Kd in assay [1] was determined as 63 nM. This molecule also registered a koff in assay [2] of 0.088 s⁻¹.

B2: humVHH_S56A (VHH)
VHH: B1 VHH with S57A
With B2, in assay [1], the Kd stood at 8.3 nM. For the same molecule, in assay [2], the koff amounted to 0.023 s⁻¹.

B3: humVHH_S56A/LALAPG-Fc (Fc fusion)
chain: B1 VHH with S57A
Consider B3, for which, in assay [3], the Kd amounted to 0.0477 nM. Moreover, the off-rate constant (koff) in assay [4] was 8.16e-05 s⁻¹.
